Tests used:
human FcγRIIb (human) [1] = target: human FcγRIIb (human) (UniProt P31994); assay: MSD [cont'd]
[2] = target: human FcγRIIa (R131 allele) (human) (UniProt P12318); assay: MSD [cont'd]
human FcγRIIIb (human) [3] = target: human FcγRIIIb (human) (UniProt O75015); assay: MSD [cont'd]
[4] = target: human FcγRIIa (H131 allele) (human) (UniProt P12318); assay: MSD [cont'd]
[5] = target: human FcγRIIIa (V158 allele) (human) (UniProt P08637); assay: MSD [cont'd]
[6] = target: human FcγRIIIa (F158 allele) (human) (UniProt P08637); assay: MSD [cont'd]
human FcRn (human) [7] = target: human FcRn (human) (UniProt P55899); assay: MSD, pH 6 [cont'd]
human C1q (human) = human C1q (human) (UniProt P02745); assay: MSD [cont'd]
human FcγRIIb (human) [8] = target: human FcγRIIb (human) (UniProt P31994); assay: MSD
[9] = target: human FcγRIIa (R131 allele) (human) (UniProt P12318); assay: MSD
[10] = target: human FcγRIIa (H131 allele) (human) (UniProt P12318); assay: MSD
human FcγRIIIb (human) [11] = target: human FcγRIIIb (human) (UniProt O75015); assay: MSD
[12] = target: human FcγRIIIa (V158 allele) (human) (UniProt P08637); assay: MSD
[13] = target: human FcγRIIIa (F158 allele) (human) (UniProt P08637); assay: MSD
[14] = target: human FcγRIIIa (V158 allele) (human) (UniProt P08637)
human FcRn (human) [15] = target: human FcRn (human) (UniProt P55899); assay: MSD [cont'd]

Sequence of human FcγRIIb (human) (P31994 43-217 limits assumed): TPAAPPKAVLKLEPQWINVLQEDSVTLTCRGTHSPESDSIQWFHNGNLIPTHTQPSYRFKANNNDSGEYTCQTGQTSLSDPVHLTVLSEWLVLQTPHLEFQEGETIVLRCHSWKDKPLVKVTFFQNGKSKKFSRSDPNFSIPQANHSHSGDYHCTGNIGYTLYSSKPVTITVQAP
Sequence of human FcγRIIa (R131 allele) (human) (P12318 34-218 H167R limits assumed): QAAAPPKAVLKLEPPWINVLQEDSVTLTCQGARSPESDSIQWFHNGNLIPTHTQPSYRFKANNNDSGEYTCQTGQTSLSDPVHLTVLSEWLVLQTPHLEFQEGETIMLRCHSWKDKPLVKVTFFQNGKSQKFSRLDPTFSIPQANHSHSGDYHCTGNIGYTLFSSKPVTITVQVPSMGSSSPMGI
Sequence of human C1q (human) (P02745 23-245 limits assumed, chain 1 of 3): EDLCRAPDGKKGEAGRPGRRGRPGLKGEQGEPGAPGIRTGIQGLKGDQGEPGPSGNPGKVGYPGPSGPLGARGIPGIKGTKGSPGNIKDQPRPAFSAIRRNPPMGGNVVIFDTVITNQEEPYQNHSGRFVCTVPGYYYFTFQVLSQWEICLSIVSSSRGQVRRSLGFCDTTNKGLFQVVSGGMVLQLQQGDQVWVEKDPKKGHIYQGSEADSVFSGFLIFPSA
Sequence of human C1q (human) (P02746 28-253 limits assumed, chain 2 of 3, further chain): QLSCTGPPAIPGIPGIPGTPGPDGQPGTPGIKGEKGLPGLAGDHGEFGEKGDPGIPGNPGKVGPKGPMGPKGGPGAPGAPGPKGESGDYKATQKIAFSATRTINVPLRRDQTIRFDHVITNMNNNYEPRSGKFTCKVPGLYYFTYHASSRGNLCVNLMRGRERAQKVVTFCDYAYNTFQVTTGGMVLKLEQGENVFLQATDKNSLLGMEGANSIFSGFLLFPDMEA
Sequence of human C1q (human) (P02747 29-245 limits assumed, chain 3 of 3, further chain): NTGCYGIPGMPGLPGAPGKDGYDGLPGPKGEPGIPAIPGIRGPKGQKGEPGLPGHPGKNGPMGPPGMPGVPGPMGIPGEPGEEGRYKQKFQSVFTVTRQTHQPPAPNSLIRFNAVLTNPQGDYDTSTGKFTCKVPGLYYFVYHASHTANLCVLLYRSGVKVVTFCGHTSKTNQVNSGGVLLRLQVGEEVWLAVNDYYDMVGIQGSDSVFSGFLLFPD
Sequence of human FcγRIIa (H131 allele) (human) (P12318 34-218 limits assumed): as the sequence (P12318 34-218 H167R limits assumed) above, with R134H counted along it
Sequence of human FcγRIIIa (V158 allele) (human) (P08637 17-208 F176V limits assumed): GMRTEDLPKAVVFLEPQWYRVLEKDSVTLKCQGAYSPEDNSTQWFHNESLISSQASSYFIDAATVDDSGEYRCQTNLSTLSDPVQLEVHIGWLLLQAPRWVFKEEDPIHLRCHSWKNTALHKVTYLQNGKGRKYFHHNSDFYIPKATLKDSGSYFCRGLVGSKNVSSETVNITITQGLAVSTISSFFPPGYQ
Sequence of human FcRn (human) (P55899 24-297 limits assumed, chain 1 of 2): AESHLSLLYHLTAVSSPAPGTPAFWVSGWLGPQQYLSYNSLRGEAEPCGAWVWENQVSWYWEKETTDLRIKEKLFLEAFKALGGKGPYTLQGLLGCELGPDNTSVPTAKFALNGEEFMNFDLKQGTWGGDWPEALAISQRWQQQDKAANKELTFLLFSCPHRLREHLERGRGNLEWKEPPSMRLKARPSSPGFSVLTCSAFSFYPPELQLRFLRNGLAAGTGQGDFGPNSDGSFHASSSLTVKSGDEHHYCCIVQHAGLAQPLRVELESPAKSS
Sequence of human FcRn (human) (chain, as listed by the source limits assumed, chain 2 of 2): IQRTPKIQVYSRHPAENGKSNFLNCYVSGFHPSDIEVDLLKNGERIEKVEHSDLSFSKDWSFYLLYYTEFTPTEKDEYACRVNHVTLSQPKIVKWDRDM
Sequence of human FcγRIIIb (human) (O75015 17-200 limits assumed): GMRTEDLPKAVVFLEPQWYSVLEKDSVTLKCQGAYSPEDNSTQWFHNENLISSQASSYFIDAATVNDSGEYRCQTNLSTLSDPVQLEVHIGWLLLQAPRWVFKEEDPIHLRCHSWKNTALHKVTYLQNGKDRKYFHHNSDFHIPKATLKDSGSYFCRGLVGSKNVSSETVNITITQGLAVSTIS
Sequence of human FcγRIIIa (F158 allele) (human) (P08637 17-208 limits assumed): as the sequence (P08637 17-208 F176V limits assumed) above, with V160F counted along it

Row | Substance | fold-change to WT Fc (human FcRn (human) [7]) | fold-change to WT Fc [5] | fold-change to WT Fc (human C1q (human)) | fold-change to WT Fc [6] | fold-change to WT Fc (human FcγRIIb (human) [8]) | fold-change to WT Fc [9] | fold-change to WT Fc [10] | also measured
1 | A330L_I332E-afuc (antibody) | – | – | – | – | – | – | – | fold to wt-fucose (human FcγRIIb (human) [1]): 0.61 fold; fold to wt-fucose [2]: 0.53 fold; fold to wt-fucose (human FcγRIIIb (human) [3]): 37.4 fold; fold to wt-fucose [4]: 0.42 fold; fold to wt-fucose [5]: 37.8 fold; fold to wt-fucose [6]: 191 fold
2 | A431G (antibody) | 0.916 fold | 1.61 fold | 0.824 fold | 1.23 fold | 1.5 fold | 1.38 fold | 1.76 fold | –
3 | C220P (antibody) | 0.991 fold | 1.33 fold | 0.761 fold | 0.99 fold | 1.21 fold | 1.04 fold | 1.17 fold | –
4 | G236A_A330L_I332E (antibody) | 0.937 fold | – | -0.004 fold | – | 0.605 fold | – | 3.6 fold | –
5 | G236A_L328V_Q295E-afuc (antibody) | – | – | – | – | – | – | – | fold-change (reference not given) [9]: 9.6 fold; fold-change (reference not given) (human FcγRIIIb (human) [11]): 2.4 fold; fold-change (reference not given) [10]: 6.7 fold; fold-change (reference not given) [12]: 7.4 fold; fold-change (reference not given) [13]: 11.8 fold
6 | G236A_R292P_A431G (antibody) | 0.674 fold | 0.394 fold | 0.1 fold | 0.569 fold | 0.511 fold | 0.939 fold | 5.21 fold | –
7 | G236A_R292P_G446E (antibody) | 0.851 fold | 0.415 fold | 0.099 fold | 0.552 fold | 0.512 fold | 0.986 fold | 4.54 fold | –
8 | G236A_R292P_Y300L-afuc (antibody) | – | – | – | – | – | – | – | fold-change (reference not given) [9]: 2.2 fold; fold-change (reference not given) (human FcγRIIIb (human) [11]): 1.8 fold; fold-change (reference not given) [10]: 11.2 fold; fold-change (reference not given) [12]: 9.1 fold; fold-change (reference not given) [13]: 19.7 fold
9 | G236A_Y300L-afuc (antibody) | – | – | – | – | – | – | – | FcγR reporter signaling, fold to wt-fucose [cont'd] [14]: 3.49 fold; fold to wt-fucose (human FcγRIIb (human) [1]): 0.93 fold; fold to wt-fucose [2]: 3.95 fold; fold to wt-fucose (human FcRn (human) [15]): 0.92 fold; fold to wt-fucose (human FcγRIIIb (human) [3]): 2.55 fold; fold to wt-fucose [4]: 14.9 fold; fold to wt-fucose [5]: 13.7 fold; fold to wt-fucose [6]: 30.1 fold; fold-change (reference not given) (human FcγRIIb (human) [8]): 0.9 fold; fold-change (reference not given) [9]: 4 fold; fold-change (reference not given) (human FcγRIIIb (human) [11]): 2.6 fold; fold-change (reference not given) [10]: 14.9 fold; fold-change (reference not given) [12]: 13.7 fold; fold-change (reference not given) [13]: 30.1 fold
10 | G236L (antibody) | 0.949 fold | 0.083 fold | 1.48 fold | 0.345 fold | 0.395 fold | 1.42 fold | 0.435 fold | –
11 | G236S-afuc (antibody) | – | – | – | – | – | – | – | FcγR reporter signaling, fold to wt-fucose [cont'd] [14]: 2.86 fold; fold to wt-fucose (human FcγRIIb (human) [1]): 1.08 fold; fold to wt-fucose [2]: 4.39 fold; fold to wt-fucose (human FcRn (human) [15]): 0.85 fold; fold to wt-fucose (human FcγRIIIb (human) [3]): 1.37 fold; fold to wt-fucose [4]: 7.37 fold; fold to wt-fucose [5]: 4.63 fold; fold to wt-fucose [6]: 10.6 fold
12 | G446E (antibody) | 1.06 fold | 1.42 fold | 0.84 fold | 1.1 fold | 1.17 fold | 1.05 fold | 1.11 fold | –
13 | R292P (antibody) | 0.898 fold | 0.917 fold | 0.549 fold | 0.79 fold | 0.541 fold | 0.454 fold | 0.577 fold | fold-change vs wt (human FcγRIIb (human) [1]): 0.54 fold; fold-change vs wt [2]: 0.45 fold; fold-change vs wt [4]: 0.58 fold
14 | R292P_G446E (antibody) | 0.884 fold | 0.916 fold | 0.391 fold | 0.779 fold | 0.562 fold | 0.45 fold | 0.628 fold | –

Reference: US20260184814A1, “BROADLY NE[…] INFLUENZA NEURAMINIDASE” (priority 2022, published 2026)
